In patent US20110274653A1, “DENDRITIC CELL IMMUNORECEPTORS (DCIR)-MEDIATED CROSSPRIMING OF HUMAN CD8+ T CELLS” (priority 2010, published 2011):

Key:
blood HLA-A201^+ mDCs = assay type: cell-based, human; details: mDCs targeted with anti-DCIR.doc-coh.FluMP; Poly I:C 5 μg/ml, LPS 50 ng/ml, CL075 1 μg/ml
Method: The specific-FluMP CD8^+ T cell response was measured after 8-10 days using HLA-A201-FluMP (58-66) tetramer.

naïve CD8^+ T cells = assay: Quality of primed CD8+ T cells (effector molecules, cytokines) by DC activator; assay type: cell-based, human; details: IFN-α DCs targeted with anti-DCIR-MART-1, Luminex, FIG. 7F
Method: Expansion of antigen-specific T cells in DC/T cell coculture: To assess the function of DCs in presenting FluMP- or MART-1-derived antigens, the present inventors used DCs from HLA-A201^+ donors. Cells were cultured with conjugates mAbs at the indicated concentration. Syngeneic purified CD8^+ T cells were cultured with the antigen-pulsed DCs at a DC/T ratio 1:20. CD40L (100 ng/ml; R&D) was added to the culture after 24 h to enhance crosspresentation by DCs^49. The cocultures were incubated at 37° C. for 8-10 days. IL-2 was added at 10 U/ml at day 3. Where indicated, DCs were activated with TLR agonists: LPS (10, 50 or 200 ng/ml; […]; Invivogen). The expansion of FluMP-, MART-1-, and HIV gag p24-specific CD8^+ T cells was evaluated using HLA-A201-FluMP (58-66) peptide ([…]) (SEQ ID NO: 1), HLA-A201-MART-1 (26-35) peptide ([…]) (SEQ ID NO: 2) and HLA-A201-p24 (151-155) peptide ([…]) (SEQ ID NO: 3)-tetramers, respectively (Beckman Coulter). For the assessment of crosspriming to multiple CD8^+ T cell-specific epitopes, CD34^+-derived DCs were incubated with anti-DCIR-p24 or IgG4-p24 fusion mAbs and cultured with CFSE-labeled CD8^+ T cells at a DC/T ratio 1:30. […] The secreted IFN-γ was measured in the culture supernatants by Luminex. […] Secretion of IFN-γ, TNF-α, IL-12p40, IL-4, IL-5 and IL-13 were measured in the supernatant after 40 h by Luminex. […]

CD1a^+ LCs = assay: DCIR-signaling effect on DC phenotype and activation (surface markers, cytokines); details: stimulated 24 h
Method: DCIR-signaling effect on DC-function: CD34^+-derived DCs were cultured in anti-DCIR (clone 24A5 or 9E8) or isotype control coated plates in the presence or absence of CD40L (R&D; 100 ng/ml) or LPS (Invivogen; 50 ng/ml). After 24 h, cells were harvested and stained for surface phenotype. The secreted cytokines were analyzed by a multiplex bead assay (Luminex).

Row | Molecule | effect of TLR agonist on FluMP-specific CD8^+ T cell response (blood HLA-A201^+ mDCs) | cytokines of DCIR-primed CD8^+ T cells according to the DC activator (naïve CD8^+ T cells) | Mean fluorescence expression of CD40 (CD1a^+ LCs) | Mean fluorescence expression of CD80 (CD1a^+ LCs) | Mean fluorescence expression of CD86 (CD1a^+ LCs) | Mean fluorescence expression of HLA-ABC (CD1a^+ LCs) | Mean fluorescence expression of HLA-DR (CD1a^+ LCs) | Mean fluorescence expression of ICOS-L (CD1a^+ LCs)
1 | Poly I:C | enhanced the FluMP-specific responses at low concentration of the targeting complex |  |  |  |  |  |  | 
2 | CCCc1nc2c(N)nc3ccccc3c2s1 [CL075, reference compound] |  | preferentially secrete IFN-γ and TNF-α with markedly reduced amounts of IL-4, IL-5 and IL-13 |  |  |  |  |  | 
3 | CD40L: CD40 ligand (R&D; 100 ng/ml) used as DC activator (protein, UniProt P29965 113-261, looked up) CD40 ligand, soluble form: MQKGDQNPQIAAHVISEASSKTTSVLQWAEKGYYTMSNNLVTLENGKQLTVKRQGLYYIYAQVTFCSNREASSQAPFIASLCLKSPGRFERILLRAANTHSSAKPCGQQSIHLGGVFELQPGASVFVNVTDPSQVSHGTGFTSFGLLKL |  | high amounts of type 2 cytokines (IL-4, IL-5 and IL-13) | 31.8 | 241.0 | 294.0 | 108.0 | 1018.000 | 69.800
